Measured values taken from US20050064507.

Tests used:
[1] = target: T1, NIK peptide TEGKMARVAWKGKRRSKARK (SEQ ID NO:164) (not fully specified)
T1 chain: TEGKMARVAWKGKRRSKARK

[2] = target: T2, MGC2941 peptide RPTPGDGEKRSRIKKSKKRK (SEQ ID NO:139) (not fully specified)
T2 chain: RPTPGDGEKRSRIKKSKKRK

[3] = target: T3, GABRB2 peptide QKKSRLRRRASQLKI (SEQ ID NO:84) (not fully specified)
T3 chain: QKKSRLRRRASQLKI

[4] = target: T4, MAP3K14 peptide WKGKRRSKARKKRK (SEQ ID NO:100) (not fully specified)
T4 chain: WKGKRRSKARKKRK

[5] = target: T5, DGKI peptide NRKKKRTSFKRKA (SEQ ID NO:79) (not fully specified)
T5 chain: NRKKKRTSFKRKA

[6] = target: T6, ANK1 peptide AQIVKRASLKRGKQ (SEQ ID NO:90) (not fully specified)
T6 chain: AQIVKRASLKRGKQ

[7] = target: T7, nuclear RNA export factor 3 peptide VRYTPYTISPYNRKGSFRKQ (SEQ ID NO:143) (not fully specified)
T7 chain: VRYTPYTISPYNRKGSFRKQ

[8] = target: T8, AF15q14 peptide GFLNEPLSSKSQRRKSLKLK (SEQ ID NO:132) (not fully specified)
T8 chain: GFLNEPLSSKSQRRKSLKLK

[9] = target: T9, CACNA1C peptide RGFLRSASLGRRASFHLE (SEQ ID NO:96) (not fully specified)
T9 chain: RGFLRSASLGRRASFHLE

[10] = target: T10, MLK3 peptide HVRRRRGTFKRSKLRARD (SEQ ID NO:76) (not fully specified)
T10 chain: HVRRRRGTFKRSKLRARD

[11] = target: T11, dag kinase iota peptide NRKKKRTSFKRKA (SEQ ID NO:115) (not fully specified)
T11 chain: NRKKKRTSFKRKA

[12] = target: T12, calcium channel, voltage-dependent, L type, alpha peptide RDIRQSPKRGFLRSASLGRR (SEQ ID NO:147) (not fully specified)
T12 chain: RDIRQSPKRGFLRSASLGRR

[13] = target: T13, SYTL4 peptide RQGKRKTSIKRDTVNPL (SEQ ID NO:87) (not fully specified)
T13 chain: RQGKRKTSIKRDTVNPL

[14] = target: T14, ribosomal protein S6 peptide AKRRRLSSLRASTSK (SEQ ID NO:120) (not fully specified)
T14 chain: AKRRRLSSLRASTSK

[15] = target: T15, MARCKS peptide KKRFSFKKSFKLSGFSFKKN (SEQ ID NO:123) (not fully specified)
T15 chain: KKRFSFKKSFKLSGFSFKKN

[16] = target: T16, MARCKS peptide PSPSNETPKKKKKRFSFKKS (SEQ ID NO:157) (not fully specified)
T16 chain: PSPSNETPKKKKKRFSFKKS

[17] = target: T17, PRKCA peptide RFARKGSLRQKNV (SEQ ID NO:85) (not fully specified)
T17 chain: RFARKGSLRQKNV

[18] = target: T18, cyclophilin G peptide TEEKSKKRKKKHRKNSRKHK (SEQ ID NO:165) (not fully specified)
T18 chain: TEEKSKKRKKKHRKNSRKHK

[19] = target: T19, pleckstrin 1 peptide KAIKAIEGGQKFARKSTRRS (SEQ ID NO:126) (not fully specified)
T19 chain: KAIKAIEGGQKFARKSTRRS

[20] = target: T20, ASIP peptide KKRSSKKEASMKKVVRP (SEQ ID NO:97) (not fully specified)
T20 chain: KKRSSKKEASMKKVVRP

[21] = target: T21, NIK peptide WKGKRRSKARKKRK (SEQ ID NO:131) (not fully specified)
T21 chain: WKGKRRSKARKKRK

[22] = target: T22, p47phox peptide QAQRQIKRGAPPRRSSIRNA (SEQ ID NO:146) (not fully specified)
T22 chain: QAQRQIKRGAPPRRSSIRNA

[23] = target: T23, dag kinase iota peptide NRKKKRTSFKRKA (SEQ ID NO:117) (not fully specified)
T23 chain: NRKKKRTSFKRKA

[24] = target: T24, HERG peptide TELEGGFSRQRKRKLSFRRR (SEQ ID NO:140) (not fully specified)
T24 chain: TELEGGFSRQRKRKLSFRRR

[25] = target: T25, ankyrin R peptide DLIEGRKGAQIVKRASLKRG (SEQ ID NO:152) (not fully specified)
T25 chain: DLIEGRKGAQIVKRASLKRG

[26] = target: T26, SPTBN4 peptide EGGDRRASGRRK (SEQ ID NO:110) (not fully specified)
T26 chain: EGGDRRASGRRK

[27] = target: T27, ARHGAP6 peptide SAQITIPKDGQKRKKSLRKK (SEQ ID NO:156) (not fully specified)
T27 chain: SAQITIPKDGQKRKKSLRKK

[28] = target: T28, NMDAR1 peptide RAITSTLASSFKRRR (SEQ ID NO:122) (not fully specified)
T28 chain: RAITSTLASSFKRRR

[29] = target: T29, MARCKS peptide KKKRFSFKKSFKLSGFSFKK (SEQ ID NO:111) (not fully specified)
T29 chain: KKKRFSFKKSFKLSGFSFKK

B1: PKC-zeta (protein)
chain: MPSRTGPKMEGSGGRVRLKAHYGGDIFITSVDAATTFEELCEEVRDMCRLHQQHPLTLKWVDSEGDPCTVSSQMELEEAFRLARQCRDEGLIIHVFPSTPEQPGLPCPGEDKSIYRRGARRWRKLYRANGHLFQAKRFNRRAYCGQCSERIWGLARQGYRCINCKLLVHKRCHGLVPLTCRKHMDSVMPSQEPPVDDKNEDADLPSEETDGIAYISSSRKHDSIKDDSEDLKPVIDGMDGIKISQGLGLQDFDLIRVIGRGSYAKVLLVRLKKNDQIYAMKVVKKELVHDDEDIDWVQTEKHVFEQASSNPFLVGLHSCFQTTSRLFLVIEYVNGGDLMFHMQRQRKLPEEHARFYAAEICIALNFLHERGIIYRDLKLDNVLLDADGHIKLTDYGMCKEGLGPGDTTSTFCGTPNYIAPEILRGEEYGFSVDWWALGVLMFEMMAGRSPFDIITDNPDMNTEDYLFQVILEKPIRIPRFLSVKASHVLKGFLNKDPKERLGCRPQTGFSDIKSHAFFRSIDWDLLEKKQALPPFQPQITDDYGLDNFDTQFTSEPVQLTPDDEDAIKRIDQSEFEGFEYINPLLLSTEESV
in vitro phosphorylation, 1 uM peptide (% of best substrate) [1]: 3 | in vitro phosphorylation, 10 uM peptide (% of best substrate) [1]: 2 | in vitro phosphorylation, 1 uM peptide (% of best substrate) [2]: 1 | in vitro phosphorylation, 10 uM peptide (% of best substrate) [2]: 1 | in vitro phosphorylation (% of best substrate) [3]: 19 | in vitro phosphorylation (% of best substrate) [4]: 8 | in vitro phosphorylation (% of best substrate) [5]: 18 | in vitro phosphorylation (% of best substrate) [6]: 5 | in vitro phosphorylation, 1 uM peptide (% of best substrate) [7]: 22 | in vitro phosphorylation, 10 uM peptide (% of best substrate) [7]: 79 | in vitro phosphorylation, 1 uM peptide (% of best substrate) [8]: 19 | in vitro phosphorylation, 10 uM peptide (% of best substrate) [8]: 61 | in vitro phosphorylation (% of best substrate) [9]: 22 | in vitro phosphorylation (% of best substrate) [10]: 41 | in vitro phosphorylation, 1 uM peptide (% of best substrate) [11]: 11 | in vitro phosphorylation, 10 uM peptide (% of best substrate) [11]: 10 | in vitro phosphorylation, 1 uM peptide (% of best substrate) [12]: 28 | in vitro phosphorylation, 10 uM peptide (% of best substrate) [12]: 34 | in vitro phosphorylation (% of best substrate) [13]: 3 | in vitro phosphorylation, 1 uM peptide (% of best substrate) [14]: 43 | in vitro phosphorylation, 10 uM peptide (% of best substrate) [14]: 34 | in vitro phosphorylation, 1 uM peptide (% of best substrate) [15]: 20 | in vitro phosphorylation, 10 uM peptide (% of best substrate) [15]: 20 | in vitro phosphorylation, 1 uM peptide (% of best substrate) [16]: 3 | in vitro phosphorylation, 10 uM peptide (% of best substrate) [16]: 6 | in vitro phosphorylation (% of best substrate) [17]: 56 | in vitro phosphorylation, 1 uM peptide (% of best substrate) [18]: 1 | in vitro phosphorylation, 10 uM peptide (% of best substrate) [18]: 2 | in vitro phosphorylation, 1 uM peptide (% of best substrate) [19]: 46 | in vitro phosphorylation, 10 uM peptide (% of best substrate) [19]: 56 | in vitro phosphorylation (% of best substrate) [20]: 1 | in vitro phosphorylation, 1 uM peptide (% of best substrate) [21]: 7 | in vitro phosphorylation, 10 uM peptide (% of best substrate) [21]: 6 | in vitro phosphorylation, 1 uM peptide (% of best substrate) [22]: 32 | in vitro phosphorylation, 10 uM peptide (% of best substrate) [22]: 56 | in vitro phosphorylation, 1 uM peptide (% of best substrate) [23]: 20 | in vitro phosphorylation, 10 uM peptide (% of best substrate) [23]: 11 | in vitro phosphorylation, 1 uM peptide (% of best substrate) [24]: 24 | in vitro phosphorylation, 10 uM peptide (% of best substrate) [24]: 49 | in vitro phosphorylation, 1 uM peptide (% of best substrate) [25]: 4 | in vitro phosphorylation, 10 uM peptide (% of best substrate) [25]: 9 | in vitro phosphorylation (% of best substrate) [26]: 3 | in vitro phosphorylation, 1 uM peptide (% of best substrate) [27]: 15 | in vitro phosphorylation, 10 uM peptide (% of best substrate) [27]: 44 | in vitro phosphorylation, 1 uM peptide (% of best substrate) [28]: 20 | in vitro phosphorylation, 10 uM peptide (% of best substrate) [28]: 17 | in vitro phosphorylation (% of best substrate) [29]: 9
